Reference: publication PMC11418127, “Structures of LIG1 uncover the mechanism of sugar discrimination against 5′-RNA-DNA junctions during ribonucleotide excision repair”

Legend:
[1] = biological target: LIG1 EE/AA (C-terminal, Δ261) (UniProt P18858 262-919, E346A;E592A); assay: X-ray crystallography; AMP covalently bound to K568 (step 1); 1 mM ATP, 1 mM EDTA; Crystallization: 20 mM Tris-HCl pH 7.0, 200 mM NaCl, 1 mM DTT, 1 mM EDTA, 1 mM ATP, LIG1 27 mg/ml, DNA:protein 1.4:1, hanging drop at 20 °C; conditions: protein: recombinant; tags: 6xHis; nicked duplex: 18-nt template, 11-nt upstream, 7-nt downstream; blunt outer ends
LIG1 EE/AA (C-terminal, Δ261), sequence (P18858 262-919 E346A/E592A): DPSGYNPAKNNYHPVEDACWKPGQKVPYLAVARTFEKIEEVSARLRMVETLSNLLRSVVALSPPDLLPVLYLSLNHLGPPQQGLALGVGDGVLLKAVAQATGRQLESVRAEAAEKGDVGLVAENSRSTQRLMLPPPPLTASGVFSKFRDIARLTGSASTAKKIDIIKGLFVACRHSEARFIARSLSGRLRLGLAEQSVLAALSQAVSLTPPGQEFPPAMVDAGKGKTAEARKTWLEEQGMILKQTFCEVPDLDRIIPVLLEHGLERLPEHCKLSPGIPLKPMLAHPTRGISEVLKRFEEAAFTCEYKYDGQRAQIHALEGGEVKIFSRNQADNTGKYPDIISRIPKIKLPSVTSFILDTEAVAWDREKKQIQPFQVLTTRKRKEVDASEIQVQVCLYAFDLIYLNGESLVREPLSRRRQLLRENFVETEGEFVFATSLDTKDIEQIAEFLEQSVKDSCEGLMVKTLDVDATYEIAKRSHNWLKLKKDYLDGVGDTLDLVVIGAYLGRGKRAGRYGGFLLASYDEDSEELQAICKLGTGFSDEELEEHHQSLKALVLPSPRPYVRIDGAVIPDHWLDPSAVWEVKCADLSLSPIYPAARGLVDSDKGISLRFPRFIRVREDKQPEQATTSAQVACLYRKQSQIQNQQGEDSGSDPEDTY

[2] = biological target: LIG1 WT (C-terminal, Δ261) (UniProt P18858 262-919); assay: as above; conditions: protein: recombinant; tags: 6xHis; nicked duplex: 18-nt template, 11-nt upstream, 7-nt downstream; blunt outer ends
LIG1 WT (C-terminal, Δ261), sequence (P18858 262-919, stated change not applied): as the sequence (P18858 262-919 E346A/E592A) above, with A85E, A331E counted along it

B1: nick DNA 5'-rG:C (mixed)
DNA 1: GTCCGACCACGCATCAGC
DNA 2: GCTGATGCGTG
DNA 3: GTCGGAC
modifications: ribonucleotide rG at position 1 of downstream strand (strand 3); 5'-phosphate on strand 3
[1]
  binding result: binds
[2]
  binding result: binds
